# Patent publication US8822187B1, “Polypeptides, nucleic acid molecules, and methods for synthesis of triterpenes” (University of Kentucky Research Foundation, priority 2011, dated 2014)
# B1: SSL-2: Botryococcus braunii race B squalene synthase-like 2 enzyme; bacterial form is truncated SSL-2-tr2 (protein)
# chain: MVKLVEVLQHPDEIVPILQMLHKTYRAKRSYKDPGLAFCYGMLQRVSRSFSVVIQQLPDELRHPICVFYLILRALDTVEDDMNLPNEVKIPLLRTFHEHLFDRSWKLKCGYGPYVDLMENYPLVTDVFLTLSPGAQEVIRDSTRRMGNGMADFIGKDEVHSVAEYDLYCHYVAGLVGSAVAKIFVDSGLEKENLVAEVDLANNMGQFLQKTNVIRDYLEDINEEPAPRMFWPREIWGKYAQELADFKDPANEKAAVQCLNHMVTDALRHCEIGLNVIPLLQNIGILRSCLIPEVMGLRTLTLCYNNPQVFRGVVKMRRGETAKLFMSIYDKRSFYQTYLRLANELEAKCKGEASGDPMVATTLKHVHGIQKSCKAALSSKELLAKSGSALTDDPAIRLLLLVGVVAYFAYAFNLGDVRGEHGVRALGSILDLSQKGLAVASVALLLLVLLARSRLPLLTSASSKQ
# B2: Botryococcus braunii race B squalene synthase-like 1 (SSL-1), wild type, hexa-histidine tagged, SEQ ID NO: 2 (Botryococcus braunii) (protein)
# chain: MTMHQDHGVMKDLVKHPNEFPYLLQLAATTYGSPAAPIPKEPDRAFCYNTLHTVSKGFPRFVMRLPQELQDPICIFYLLLRALDTVEDDMNLKSETKISLLRVFHEHCSDRNWSMKSDYGIYADLMERFPLVVSVLEKLPPATQQTFRENVKYMGNGMADFIDKQILTVDEYDLYCHYVAGSCGIAVTKVIVQFNLATPEADSYDFSNSLGLLLQKANIITDYNEDINEEPRPRMFWPQEIWGKYAEKLADFNEPENIDTAVKCLNHMVTDAMRHIEPSLKGMVYFTDKTVFRALALLLVTAFGHLSTLYNNPNVFKEKVRQRKGRIARLVMSSRNVPGLFRTCLKLANNFESRCKQETANDPTVAMTIKRLQSIQATCRDGLAKYDTPSGLKSFCAAPTPTK
# Legend:
# [1] = NADPH oxidation versus squalene and bisfarnesyl ether recovery; format: biochemical
# Procedure: With reference to Table 2, Assays were performed as described above in the Methods except that an alternative reaction buffer (50 mM Tris pH 8.0, 250 mM NaCl, 20 mM MgCl2) was used to minimize spontaneous NADPH oxidation and prevent protein precipitation at high concentrations. […] An extinction coefficient of 6220/M/cm was used to calculate the amount of NADPH oxidized. No NADPH oxidation could be measured in complete reaction buffer without protein over a 1 h incubation. […] This background NADPH oxidation was subtracted from the experimental determined rates. The experimental enzyme assays contained either purified TSS (0.75 or 1.5 μg) or SSL-2 (8 or 16 μg) and 40 μM ^3H-FPP. Absorbance at […] was recorded every 2.5 min. for 15 minutes, after which the reaction was stopped by adding an equal volume of 0.5 M EDTA. The reaction mixture was collected, extracted with 200 μl of hexane and aliquots were separated by silica TLC along with standards of squalene and bisfarnesyl ether using hexane:MTBE (25:1) as the developing solvent. The standards were subsequently visualized with iodine vapor, and corresponding zones analyzed by scintillation spectroscopy. Data represents mean±S.E.M of duplicate samples.
# [2] = Michaelis-Menten enzyme kinetics of the SSL-1 reaction (3H-FPP to PSPP); format: biochemical; conditions: after acid phosphatase dephosphorylation
# Procedure: FIG. 5 depicts Michaelis-Menten enzyme kinetics of the SSL-1 reaction. Enzyme assays (50 μl) were set up as described in the methods section with purified SSL-1 (0.2-1.0 μg), 0.1% triton X-100, ±2 mM NADPH, and the indicated concentration of ^3H-FPP. Assays were incubated for 15 min at 37° C. and stopped by addition of 50 μl 0.5 M EDTA. The reactions were then extracted 3× with 200 μl water saturated 1-butanol and pooled in a 4 ml glass screw cap vial. […] The standards were visualized with iodine vapors and the zones corresponding to FOH (rf=0.65) and PSOH (rf=0.45) were scraped and analyzed by scintillation spectroscopy. […] The data was analyzed using the SigmaPlot Enzyme Kinetics 1.3 software. […]
# Typical enzyme assays were initiated by mixing aliquots of purified enzyme with 50 mM Mops, pH 7.3, 20 mM MgCl2, 2.5 mM 2-mercaptoethanol, 10 μM [1-^3H]-FPP (˜2×10^5 dpm total), and 2 mM NADPH in total reaction volume of 50 μl. […] The standards were visualized with iodine vapors and TLC zones corresponding to the standards were scrapped and analyzed by scintillation spectrometry. […] Extracts were resuspended in 50 μl hexane and an aliquot analyzed by GC-MS with a Varian CP-3800 GC coupled to a Varian Saturn 2200 MS/MS (Varian Medical Systems) using a Supelco SLB-5 ms fused silica capillary column (30 m×0.25 mm×0.25 μM film thickness, Supelco). […]
# [3] = 100 μM NADPH, 40 μM 3H-FPP, 15 minutes, 23° C.
Molecule,Bisfarnesyl ether formed [1],NADPH oxidation not associated with squalene biosynthesis [1],NADPH oxidized [1],squalene biosynthesis [1],bisfarnesyl ether formed per mole equivalent of NADPH oxidation ([1]; 21 pmoles versus 2.4 pmoles),"pmoles bisfarnesyl ether recovered per μg protein [1, 3]","pmoles squalene recovered per μg protein [1, 3]","pmoles NADPH oxidized per μg protein ([1]; 100 μM NADPH, 40 μM FPP, 15 minutes, 23° C., background subtracted)",NADPH oxidation rate in reaction buffer without FPP (background) ([1]; without FPP),input radioactivity recovered as FOH and PSOH [2]
B1,greater than 21 pmoles,2.4 pmol,4.6 pmol,2.2 pmol,about 10 times,21.7 ± 1.8 pmoles per μg protein,2.2 ± 0.4 pmoles per μg protein,4.6 ± 2.6 pmoles per μg protein,22 pmoles/μg protein/h,–
B2,–,–,–,–,–,–,–,–,–,greater than 95%
